Test results taken from paper PMC6009593 (Nucleic Acids Research, 2018).

B1: Pyrococcus furiosus Proliferating Cell Nuclear Antigen (PfuPCNA) (natural protein)
chain: MPFEIVFEGAKEFAQLIDTASKLIDEAAFKVTEDGISMRAMDPSRVVLIDLNLPSSIFSKYEVVEPETIGVNMDHLKKILKRGKAKDTLILKKGEENFLEITIQGTATRTFRVPLIDVEEMEVDLPELPFTAKVVVLGEVLKDAVKDASLVSDSIKFIARENEFIMKAEGETQEVEIKLTLEDEGLLDIEVQEETKSAYGVSYLSDMVKGLGKADEVTIKFGNEMPMQMEYYIRDEGRLTFLLAPRVEE

What was measured:
[1] = biological target: B1; experiment: SPR
[2] = biological target: Pyrococcus furiosus Mre11–Rad50 complex, wild type, full length (PfuMR wt) (Pyrococcus furiosus, UniProt Q8U1N9 1-426; P58301 1-882); experiment: SPR
Chain of Pyrococcus furiosus Mre11–Rad50 complex, wild type, full length (PfuMR wt) (P58301 whole entry, one chain of several): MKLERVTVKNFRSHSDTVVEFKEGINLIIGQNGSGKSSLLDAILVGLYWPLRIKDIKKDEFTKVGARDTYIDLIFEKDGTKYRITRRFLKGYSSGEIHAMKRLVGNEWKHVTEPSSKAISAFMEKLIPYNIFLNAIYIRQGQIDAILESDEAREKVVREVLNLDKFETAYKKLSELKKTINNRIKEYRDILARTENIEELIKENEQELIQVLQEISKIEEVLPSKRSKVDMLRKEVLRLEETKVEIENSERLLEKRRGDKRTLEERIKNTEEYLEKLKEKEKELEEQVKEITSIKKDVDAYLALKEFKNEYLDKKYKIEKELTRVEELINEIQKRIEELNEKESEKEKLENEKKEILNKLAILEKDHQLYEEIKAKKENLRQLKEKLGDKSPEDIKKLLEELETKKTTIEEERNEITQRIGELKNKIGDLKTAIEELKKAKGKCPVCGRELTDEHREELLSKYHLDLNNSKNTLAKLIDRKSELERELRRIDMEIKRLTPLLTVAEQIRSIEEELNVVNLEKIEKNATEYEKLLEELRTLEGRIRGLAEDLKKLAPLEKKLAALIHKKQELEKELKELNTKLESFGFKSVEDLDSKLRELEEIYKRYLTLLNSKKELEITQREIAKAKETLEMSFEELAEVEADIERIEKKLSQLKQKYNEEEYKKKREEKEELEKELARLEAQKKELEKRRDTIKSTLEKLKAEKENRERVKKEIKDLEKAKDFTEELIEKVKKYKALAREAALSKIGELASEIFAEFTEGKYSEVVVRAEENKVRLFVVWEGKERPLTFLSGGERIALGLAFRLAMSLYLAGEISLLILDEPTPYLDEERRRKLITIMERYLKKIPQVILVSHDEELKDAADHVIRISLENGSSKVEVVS

Binder | Kd [1] [µM] | Kd [2] [µM]
Ac-KKKRGTLDSWLGG-NH2 [PIP-like Mre11 peptide (PfuMre11 412–424)] | 4.05 | 
B1 |  | ~0.00407
